Measured values taken from PMC4466140, “Evolution of the SH3 Domain Specificity Landscape in Yeasts” (PLoS ONE, 2015).

How the values were obtained:
Test in all cases: peptide or protein array; SPOT: 15-mer peptides on cellulose (CAPE) membrane; GST-SH3 domains at 10 μg/ml overnight at 4°C in blocking buffer (TBS, 50 mM Tris/HCl pH 7.6, 150 mM NaCl, Blocking Buffer, 0.15 M sucrose); detected with anti-GST antibody and HRP conjugate
Details in all cases: both partners purified
[1] = molecular target: T1, GST-tagged C. albicans Rvs167 SH3 domain (C. albicans, UniProt Q59LF3 382-440)
T1 construct: Rvs167 of Candida albicans, SH3 domain; also called CaRvs167; source: E. coli BL21(DE3), purified (glutathione Sepharose 4B); not shown: GST, N-terminal, kept
T1 sequence: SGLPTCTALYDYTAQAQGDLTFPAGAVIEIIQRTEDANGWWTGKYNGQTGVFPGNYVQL

[2] = molecular target: T2, GST-tagged S. cerevisiae Rvs167 SH3 domain (S. cerevisiae, UniProt P39743 421-482)
T2 construct: Rvs167, S. cerevisiae, SH3 domain; also called ScRvs167; source: E. coli BL21(DE3), purified (glutathione Sepharose 4B); not shown: GST, N-terminal, kept
T2 sequence (P39743 421-482): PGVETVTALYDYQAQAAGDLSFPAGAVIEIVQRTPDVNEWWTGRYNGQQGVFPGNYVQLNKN

[3] = molecular target: T3, GST-tagged S. pombe Rvs167 (Hob1) SH3 domain (S. pombe, UniProt O74352 407-466)
T3 construct: Rvs167 homolog of S. pombe, called Hob1, SH3 domain; also called SpRvs167; source: E. coli BL21(DE3), purified (glutathione Sepharose 4B); not shown: GST, N-terminal, kept
T3 sequence (looked up): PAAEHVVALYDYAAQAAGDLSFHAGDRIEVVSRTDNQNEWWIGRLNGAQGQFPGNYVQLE

Measured: binding result

B1: Type II peptide #66 (SPOT membrane) (peptide)
peptide: SSSSTPPTLPPRRIE
notes: 15-mer of the SH3-SPOT library mined from the S. cerevisiae proteome; In the SPOT library all cysteines were replaced by serines; source: synthetic peptide, SPOT synthesis on cellulose (CAPE) membrane
binds: all assays above
